How the values were obtained:
[1] = target: wild-type E-cadherin extracellular domain, hexahistidine-tagged (human) (UniProt P12830); experiment: FRET or BRET; single-molecule intermolecular FRET by TIRF microscopy; high-coverage wild-type (~1,400 E-cad/µm^2; 5 × 10^-7 M total in solution); AF555 donor, AF647 acceptor and unlabelled E-cad tethered by His6 to a DOPC/DGS-NTA(Ni) 19:1 supported lipid bilayer; 25 mM HEPES, 100 mM NaCl, 10 mM KCl, 2 mM CaCl2, 0.05 mM NiSO4, pH 8; average dissociation rate constant from a three-state Markov model
[2] = target: wild-type E-cadherin extracellular domain, hexahistidine-tagged (human) (UniProt P12830); experiment: FRET or BRET; single-molecule intermolecular FRET by TIRF microscopy; intermediate-coverage wild-type (~1,000 E-cad/µm^2; 3 × 10^-7 M total in solution); AF555 donor, AF647 acceptor and unlabelled E-cad tethered by His6 to a DOPC/DGS-NTA(Ni) supported lipid bilayer; same buffer, pH 8; three-state Markov model
[3] = target: wild-type E-cadherin extracellular domain, hexahistidine-tagged (human) (UniProt P12830); experiment: single-molecule tracking (TIRFM), cluster size from trajectory friction factors; AF555 labelled E-cad on DOPC supported lipid bilayers with 5% DGS-NTA(Ni); high, intermediate and low surface coverage (~39,000, ~1,000, ~0.6 E-cad/µm^2); raw friction factor data adapted from Thompson et al., 2019 and analysed here
[4] = target: wild-type E-cadherin extracellular domain, hexahistidine-tagged (human) (UniProt P12830); experiment: single-molecule tracking cluster size distributions + kinetic Monte Carlo simulation; effective rate constants worked out from kMC on/off rates that were optimised so that simulated cluster size distributions match the experimental ones (1,250 E-cad/µm^2 in the simulation)
[5] = target: E-cadherin extracellular domain L175D cis-binding mutant, hexahistidine-tagged (human) (UniProt P12830); experiment: FRET or BRET; single-molecule intermolecular FRET by TIRF microscopy; high-coverage mutant (~1,300 E-cad/µm^2; 5 × 10^-7 M total in solution); AF555 labelled wild-type donor with AF647 labelled mutant acceptor and unlabelled mutant, tethered by His6 to a DOPC/DGS-NTA(Ni) supported lipid bilayer; same buffer, pH 8; three-state Markov model
[6] = target: E-cadherin extracellular domain L175D cis-binding mutant, hexahistidine-tagged (human) (UniProt P12830); experiment: single-molecule tracking (TIRFM), cluster size from trajectory friction factors; AF555 labelled E-cad on DOPC supported lipid bilayers with 5% DGS-NTA(Ni); high, intermediate and low surface coverage (~39,000, ~1,000, ~0.6 E-cad/µm^2); raw friction factor data adapted from Thompson et al., 2019 and analysed here
[7] = target: E-cadherin extracellular domain L175D cis-binding mutant, hexahistidine-tagged (human) (UniProt P12830); experiment: single-molecule tracking cluster size distributions + kinetic Monte Carlo simulation; effective rate constants worked out from kMC on/off rates that were optimised so that simulated cluster size distributions match the experimental ones (1,250 E-cad/µm^2 in the simulation)

Substance | koff [1] [s⁻¹] | koff [2] [s⁻¹] | characteristic cluster size [3] [E-cad] | cluster size (E-cad per cluster) [3] [E-cad] | binding affinity, specific cis-interaction [4] [µM] | effective koff, specific cis-interaction [4] [s⁻¹] | effective kon, specific cis-interaction [4] [M⁻¹ s⁻¹] | koff [5] [s⁻¹] | characteristic cluster size [6] [E-cad] | cluster size (E-cad per cluster) [6] [E-cad] | effective koff, nonspecific cis-interaction [7] [s⁻¹] | effective kon, nonspecific cis-interaction [7] [M⁻¹ s⁻¹]
wild-type E-cadherin extracellular domain, hexahistidine-tagged (from UniProt P12830 155-709) (domain or fragment) | 1.04 | 3.17 | 33 | 40 to 160 | 10 | 100 | 2.7e+06 | 1.4 | – | – | – | –
E-cadherin extracellular domain L175D cis-binding mutant, hexahistidine-tagged (from UniProt P12830 155-709) (domain or fragment) | – | – | – | – | – | – | – | – | 29 | 40 | 1000 | 1.1e+06
